Laboratory results as given in patent US20240174744A1 (SCIRHOM, published 2024).
Substitutions are numbered along the chain they refer to.

T1: human iRhom2 (inactive rhomboid protein 2, isoform 1), endogenously expressed on human cells (human, UniProt Q6PJF5 1-856)
T1 sequence: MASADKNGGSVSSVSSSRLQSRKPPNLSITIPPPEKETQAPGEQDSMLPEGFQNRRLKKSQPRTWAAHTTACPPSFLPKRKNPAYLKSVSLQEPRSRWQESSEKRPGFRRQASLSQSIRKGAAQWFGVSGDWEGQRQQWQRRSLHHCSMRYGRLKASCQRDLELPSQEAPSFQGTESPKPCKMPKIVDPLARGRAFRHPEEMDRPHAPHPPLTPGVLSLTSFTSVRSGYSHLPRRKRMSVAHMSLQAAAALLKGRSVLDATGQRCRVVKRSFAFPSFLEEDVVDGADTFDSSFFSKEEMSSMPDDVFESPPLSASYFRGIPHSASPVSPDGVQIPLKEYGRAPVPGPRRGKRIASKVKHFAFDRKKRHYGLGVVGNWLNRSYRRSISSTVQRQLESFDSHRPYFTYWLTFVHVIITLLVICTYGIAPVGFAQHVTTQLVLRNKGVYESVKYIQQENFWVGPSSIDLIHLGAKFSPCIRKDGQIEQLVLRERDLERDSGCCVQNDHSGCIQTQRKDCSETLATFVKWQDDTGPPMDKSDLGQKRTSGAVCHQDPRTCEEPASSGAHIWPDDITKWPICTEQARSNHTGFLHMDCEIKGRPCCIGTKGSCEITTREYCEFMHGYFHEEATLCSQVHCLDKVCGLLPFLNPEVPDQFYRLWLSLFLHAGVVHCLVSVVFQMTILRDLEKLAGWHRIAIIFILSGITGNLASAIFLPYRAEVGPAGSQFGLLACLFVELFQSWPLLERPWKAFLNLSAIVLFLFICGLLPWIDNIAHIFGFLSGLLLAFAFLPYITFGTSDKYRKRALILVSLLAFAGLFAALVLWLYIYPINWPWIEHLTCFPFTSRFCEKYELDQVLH

T2: dog iRhom2 full length wild type, C-terminally tagged with 3 consecutive copies of the T7 epitope (dog, UniProt Q00M95 1-827)
T2 construct: whole, on cells; also called Dog-iR2-FL-WT-T7
T2 sequence: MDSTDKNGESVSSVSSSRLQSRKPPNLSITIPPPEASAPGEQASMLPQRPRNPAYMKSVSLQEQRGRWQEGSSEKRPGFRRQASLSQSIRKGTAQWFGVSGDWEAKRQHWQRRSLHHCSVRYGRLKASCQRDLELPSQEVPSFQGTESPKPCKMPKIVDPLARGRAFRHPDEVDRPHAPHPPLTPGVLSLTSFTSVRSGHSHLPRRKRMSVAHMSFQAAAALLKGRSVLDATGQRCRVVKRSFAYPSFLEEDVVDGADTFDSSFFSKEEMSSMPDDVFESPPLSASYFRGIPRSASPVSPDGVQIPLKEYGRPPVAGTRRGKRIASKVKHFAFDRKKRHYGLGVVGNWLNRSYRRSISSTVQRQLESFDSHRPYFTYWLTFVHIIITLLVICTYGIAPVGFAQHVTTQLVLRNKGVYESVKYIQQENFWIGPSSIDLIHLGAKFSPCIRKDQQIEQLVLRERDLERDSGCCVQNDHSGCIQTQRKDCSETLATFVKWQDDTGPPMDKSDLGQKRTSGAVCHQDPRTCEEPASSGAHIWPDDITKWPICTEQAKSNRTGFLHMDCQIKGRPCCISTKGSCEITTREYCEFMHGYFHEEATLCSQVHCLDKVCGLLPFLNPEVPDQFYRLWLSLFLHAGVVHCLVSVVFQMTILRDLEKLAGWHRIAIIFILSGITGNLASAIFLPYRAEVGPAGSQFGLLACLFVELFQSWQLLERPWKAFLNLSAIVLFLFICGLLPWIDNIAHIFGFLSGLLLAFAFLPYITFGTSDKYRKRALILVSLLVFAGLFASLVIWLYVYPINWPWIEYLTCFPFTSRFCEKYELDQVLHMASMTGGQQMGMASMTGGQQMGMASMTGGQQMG

T3: human iRhom1, endogenously expressed on RH-30 cells (human, UniProt Q96CC6 1-855)
T3 construct: RH-30 cells are described as endogenously negative for iRhom2 but endogenously expressing iRhom1; also called NP_071895.3
T3 sequence: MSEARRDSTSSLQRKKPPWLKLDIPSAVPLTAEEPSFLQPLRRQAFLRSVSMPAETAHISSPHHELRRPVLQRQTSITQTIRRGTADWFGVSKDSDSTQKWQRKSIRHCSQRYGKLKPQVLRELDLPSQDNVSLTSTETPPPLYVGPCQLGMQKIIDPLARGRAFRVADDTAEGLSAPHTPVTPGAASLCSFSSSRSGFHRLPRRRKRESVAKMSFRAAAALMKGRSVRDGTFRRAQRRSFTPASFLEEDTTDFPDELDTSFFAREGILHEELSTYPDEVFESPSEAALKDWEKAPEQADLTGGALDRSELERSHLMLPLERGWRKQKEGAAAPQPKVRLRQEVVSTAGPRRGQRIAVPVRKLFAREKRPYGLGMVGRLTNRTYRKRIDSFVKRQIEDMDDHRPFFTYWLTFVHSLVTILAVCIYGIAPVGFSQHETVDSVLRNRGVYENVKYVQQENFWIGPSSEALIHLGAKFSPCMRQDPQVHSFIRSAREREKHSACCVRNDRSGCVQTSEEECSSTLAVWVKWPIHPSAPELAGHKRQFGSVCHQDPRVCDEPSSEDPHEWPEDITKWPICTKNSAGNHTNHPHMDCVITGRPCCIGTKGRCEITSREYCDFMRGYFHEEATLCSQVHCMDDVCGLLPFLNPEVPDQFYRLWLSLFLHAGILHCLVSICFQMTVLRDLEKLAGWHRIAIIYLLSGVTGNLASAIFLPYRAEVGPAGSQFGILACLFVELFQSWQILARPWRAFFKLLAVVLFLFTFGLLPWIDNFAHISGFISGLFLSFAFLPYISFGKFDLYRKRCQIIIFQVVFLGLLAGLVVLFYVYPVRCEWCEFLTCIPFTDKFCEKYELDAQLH

B1: chimeric version of antibody 16 (antibody, V domains shown)
VH: QVTLKESGPGILQPSQTLSLTCSFSGFSLSTFALGVGWIRQPSGRGLEWLAHIWWDDDKYYNPALKSRLTISKDTSKNHVFLKIANVDTADTATYYCARITTYYYGMDYWGQGTSVTVSS
VL: DIVLSQSPATLSVTPGDSVSLFCRASQSIGNHLHWYQQESHASPRLLIKYASQSISGIPSRFSGSGSGTDFTLSINSVETEDFGMYFCQQSYNWPLTFGAGTKLELK
notes: Chimeric version made in CHO cells, detected with anti-human IgG; the variable domains are those of clone #16; also called ch16
B2: chimeric version of antibody 22 (antibody, V domains shown)
VH: QVTLKESGPGILQPSQTLSLTCSFSGFSLSTFGMGVGWIRQPSGKGLEWLAHIWWDDEKYYNSALKSRLTISKATSKNQVFLKIANVDTADTATYYCARISNYGSNYWYFNVWGTGTTVTVSS
VL: QVVLTQSPALMSASPGEKVTMTCSAGSSVSYMYWYQQKPGSSPRVLIYDTSNLASGVPARFTGSGSGTSYSLTISRMEAEDAATYYCQQWNSYPLTFGAGTKLELK
B3: chimeric version of antibody 42 (antibody, V domains shown)
VH: B2 VH with F24L, M34R, S63P, A74D, K83R, S101Q, N111D
VL: LIVLTQSPAIMSASPGEKVTMTCGATSRISYMFWYQQKPGSSPRVLIYDTSNLASGVPVRFSGSGSGTSYSLTISRVEAEDVATYYCQQWNSYPLTFGAGTKLELK
B4: chimeric version of antibody 44 (antibody, V domains shown)
VH: B2 VH with G44E, E58D, S63P, A74D, V80I, A85T, D91E, A98S, S101G, N111D
VL: B2 VL with V2I, L10V, S24T, G26S, S30Y, K38T, V45L, A59V, T62S, S92T
B5: chimeric version of antibody 34 (antibody, V domains shown)
VH: QVTLKESGPGILQPSQTLSLTCSFSGFSLSTFSLGVGWIRQSSGKGLEWLAHIWWDDEKYYNPALKSRLTISKDTSKNQVFLKIANVDAADTATYYCARAYYSKSYYALDYWGQGTSVTVSS
VL: DIQMTQSPSSLSASLGERVSLTCRASQEISGYLSWLQQKPDGTIKRLIYAASTLDSGVPKRFSGSRSGSDYSLAISSLESEDFADYYCLQYANFPFTFGSGTKLEIK

What follows are binders tested against T1, human iRhom2 (inactive rhomboid protein …) (assay: cell-based or functional assay).

Row | Binder | inhibition of LPS-induced release of TNFα from PBMCs of rheumatoid arthritis patients, 1 µg/ml, chimeric antibody [% inhibition] | inhibition of PMA-induced release of HB-EGF from PBMCs of rheumatoid arthritis patients, 1 µg/ml, chimeric antibody [% inhibition] | inhibition of PMA-induced release of HB-EGF from THP-1 cells, 3 µg/ml [% inhibition] | inhibition of PMA-induced release of HB-EGF from U-937 cells [% inhibition] | inhibition of PMA-induced release of IL-6R from PBMCs of rheumatoid arthritis patients, 1 µg/ml, chimeric antibody [% inhibition] | inhibition of PMA-induced release of IL-6R from U-937 cells, 3 µg/ml [% inhibition] | inhibition of PMA-induced release of TNFα from U-937 cells, 3 µg/ml [% inhibition]
1 | B1 | 83.6 | 66 | 73.6 | 101 | 72.3 | 84.3 | 93.7
2 | B2 | 76.5 | 54.7 | 81.9 | 103 | 61.1 | 85.6 | 96.5
3 | B3 | 82.1 | 76.1 | 80.8 | 103 | 73.5 | 91.8 | 96.5
4 | B4 | 70.2 | 37.8 | 70.7 | 99.2 | 53.1 | 85.2 | 89.2
5 | B5 | 66.6 | 30.6 | 76.1 | 98.1 | 45.6 | 82.8 | 87.4

What follows are binders tested against T2, dog iRhom2 full length wild type, … (assay: FACS on MEF-DKO-iR2 Dog cells, 3 µg/ml).
Description: In brief, immortalized MEF-DKO-EV control cells, MEF-DKO-rhesus-iR2-FL-WT-T7 cells, MEF-DKO-cyno-iR2-FL-WT-T7 cells, MEF-DKO-dog-iR2-FL-WT-T7 cells and MEF-DKO-rabbit-iR2-FL-WT-T7 cells, as well as their respective iRhom1 counterparts, were harvested with 10 mM EDTA in PBS, washed and resuspended in FACS buffer (PBS, 3% FBS, 0.05% sodium azide), and seeded in Nunc U-bottom 96-well plates (Thermo Fisher Scientific, USA) at approximately 3×10⁵ cells per well. To pellet cells and remove supernatants, the plates were centrifuged at 1,500 rpm and 4° C. for 3 minutes. For primary staining, cells were resuspended in 100 μl per well of either FACS buffer alone (controls), mouse monoclonal anti-T7 IgG (Merck Millipore, USA) at 3 μg/ml FACS buffer or the antibodies of the present disclosure also at 3 μg/ml FACS buffer and incubated on ice for 1 hour. Afterwards, plates were centrifuged at 1,500 rpm and 4° C. for 3 minutes and washed twice with 200 μl per well of FACS buffer. For secondary staining, cells were spun down and resuspended in 100 μl per well of PE-conjugated goat anti-mouse IgG F(ab′)2 detection fragment (Dianova, Germany) diluted 1:100 in FACS buffer. Protected from light, the cell suspensions were incubated on ice for 1 hour. […] Finally, cells were resuspended in 150 μl per well of FACS buffer and analyzed using a BD Accuri™ C6 Plus flow cytometer (Becton Dickinson, Germany).

Row | Binder | binding result
6 | B1 | binds

The binders below were run against T3, human iRhom1, endogenously expressed on … (assay: FACS on RH-30 cells (iRhom1-positive, not iRhom2-positive)).

Row | Binder | binding result
7 | B1 | no binding (tested: 3 µg/ml)
